Tests used:
[1] = biological target: His-gephyrin, rat gephyrin P1, wild type, full length (rat); assay: SEC; analytical Superose 6 increase 5/10, 4 °C, 50 mM Tris/HCl, 300 mM NaCl pH 7.4; protein reduced with 1 mM TCEP, also the oxidised peak collected and re-reduced
[2] = biological target: GCN4-GlyR, GCN4 receptor model for the glycine receptor β subunit; assay: co-sedimentation; sedimentation assay of in vitro phase separation: proteins mixed in 25 mM Tris pH 7.4, 150 mM NaCl, 10 min 25 °C, 17,000 x g 10 min 4 °C; pellet and supernatant on Coomassie gels; gephyrin oxidised or reduced
[3] = biological target: gephyrin, endogenous in mouse brain (mouse (endogenous in brain)) (UniProt Q8BUV3); assay: non-reducing SDS-PAGE and Western blot; brain lysates of mice perfused with NEM-containing PBS; SDS sample buffer with 5 mM DTT or without reductant; shows only multimers that survive SDS

| stoichiometry N [1] | percent of gephyrin in the pellet fraction [2] | Substance | fractional abundance of multimeric gephyrin [3] |
| --- | --- | --- | --- |
| 6 | 60% | His-gephyrin, rat gephyrin P1, wild type, full length (natural protein) | – |
| – | – | gephyrin, endogenous in mouse brain (from UniProt Q8BUV3 1-769) (natural protein) | 20% |

From paper PMC13542264
